# From the nanobody polyreactivity screen of Harvey et al. (2022)
# Test: yeast display, Sf9 membrane polyspecificity reagent, FACS + sequencing; frameworks hold sequencing errors
# Summary of the method: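 Using colony PCR, genes from sorted yeast display clones were amplified, then sequenced on MiSeq at 2 × 250 and filtered by CDR length. The clones had been stained with 10% biotinylated, detergent-solubilized Sf9 membrane reagent for 1 hour at 4 °C and sorted by FACS into low and high (top ~1%) gates on anti-HA and streptavidin fluorescence. Polyreactivity labels come from the gate of origin.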
row,Sequence,polyreactivity (PSR sort gate)
1,QVQLVEAGGGLVQAGGSLRLSCAASGYIFAYYAMGWYRQAPGKERELVATIRSGGSTNYADSVKGRFTISRDNGKNTVYLQMNSLKPEDTAVYYCARDDATAGDYWGQGTQVTVSS,low polyreactivity
2,QVQLVEAGGGLVQAGGSLRLSCASSGRIFPFNAMGRYRQAPGKEREFVAAIRLSGTRKYYADSVKGRFTISRDNAKNTVYLQMNSLKPEDTAVYYCAAKYSGHYYNYDYWGQGTQVTVSS,high polyreactivity
3,QVQLVEAGGGLVQAGGTLRLSCAASGSNFSENTMGWYRPAPGKKRELVADITSGGSTNYADSVKGRFTISRDNAKNTVYLQMNSMKAEVTAVYYCAADYNGEYDYWGQGSQVTVSS,low polyreactivity
4,QVQLVELGGGLVQAGGSLRLSCAASGLTLYYYAMGWYRQEPGKERELVAAINRGGSTYYADSVKGRFTISRDNAKNTVYLQMNSLKPEATAVYYCAVDYGVRDLTYYYWGQGTQVTVSS,low polyreactivity
5,QVQLVESAAGLVQAGGSLRLSCAASGFIFWYYAMGWSRQAPGKERELVAAINSSGGSTYYADSVKGRFSISRDNAKNTVYLQMNSLKPEDSAVYYCAARAYQRGNYWGQGTQVTVSS,high polyreactivity
6,QVQLVESAAGLVQAGGSLRLSCAASGLNFASYGMGGYRQAPGKERELVAAISSSVGNTYYADSVKGRFTISRDYAKNTVYLQMNSLNPEDTAVYYCAAAKRSGYTGFKYYYWGQGTQVTVSS,high polyreactivity
7,QVQLVESAAGLVQAGGSLRLSCAASGSTFAGNAMGWYRQAPGKERELVAAIDSSTGSTYYADSVKGRFTISRDNAKNTVYLQMNSLKPEDTAVYYCNKTSFLVKLDYWGQGTQVTVSS,low polyreactivity
8,QVQLVESAAGLVQAGGSLRLTCAASGLTFTTYAKGWYTQSPRKDRELVAAISRRGSRTYYADSVKGRFTISRDNAKNTVYLQMQSLKPDDTAVYYCNALTGSFKTDSFDYWGQGTQVTVSS,high polyreactivity
9,QVQLVESAAGLVQAVGSHRLSCAASRLTFGFYAMGSDRQARGKESELVAAIDFSDGSTYYADSVKGRFTISRDNAKKTVYLQMNSLKPEDTAVYYCAADDPGLGYWSLTWYDYWGQGTQVTVSS,high polyreactivity
10,QVQLVESAAVLVQAGGRLRLSCADSGRIFTDNGMGWYRQAPGKERELVAAISESGGSTYYADSVKGRFTISRDNAKNTVYLQMNSLKPEDTAVYYCAADLYWYGYHYDYWGQGTQVTVSS,low polyreactivity
11,QVQLVESAGALVQEGGSLRLICAASGFTFLKNAMGWYRQAPGKERELVDGISRSGGSTYYADSVKRRFTISRDKAKNPDYLQMNSQKPEDPAVYYCAAGTVQSYTWLPTRGDYWGQGSQVTVSS,high polyreactivity
12,QVQLVESAGCLVQAGGSLRLSCAASGRTFAVYAMGWSRPAPGKQREMVAAITLGASRSYYADSVKGRFTISRDNAKNTVYLQMNRLKPEDSAVYYWNDVGRLNVDSYLNDYWGKGTQVTVSS,low polyreactivity
13,QVQLVESAGCLVQAGGSLRLSCAASGSIISAYARGWYRQAPGKERQLVAAITRSGGSTYYADSVKGRFTISRDYAKITVYLQMNSLKPEDTAVYYCAARSYVHVFVRMYYWGQGTQVTVSS,high polyreactivity
14,QVQLVESAGGIVQAGGSLRLSCDASGSIFYYYAMGWYRQAPGKERELVADISYRGSRTFYADSVKGLFTISRDIAKNTVYLQMNSLKPEDTEVYYCAAAYSRYTSRFYYWGQGTQVTVSS,high polyreactivity
15,QVQLVESAGGLDQAGGSLRLICAASGGTFSFYAMGWYRHAPGKEREFVAAITASDGSTYADSVKGRFTISRDNAKNTVYLQMNSLKPEDTAVYYCAVAGGEFSSYGYWGQGTQVTVSS,low polyreactivity
16,QVQLVESAGGLDQAGGSLRLICDASGFISRNAMGWYTQAPGKERELVAAITRGGSTNYADSVKGRFTISRDNAKNTVYLQMNSLKPEDSAVYYCNQQRQGNSRSYYQTYYGMYYWGQGTQVTVSS,high polyreactivity
17,QVQLVESAGGLGQAGGSLRLSSAASGITTRTYAMGWYRQARGNERELVAAISDSGDRTYYADSVKGRFTISRDNAKNTVYLQMNSLKPEETAVYYCAVHAPGPRCEYWGQGTQVTVSS,low polyreactivity
18,QVQLVESAGGLVHARGSLRLSCAASGRIFERNAMGSYRQAPGKERELVARITSGGGTYYADSVKGRFTISRDNAKNTVYLQMNSLKPEDTAVYYCAVQYLYRKYRRYDYWGLGTQVTVSS,high polyreactivity
19,QVQLVESAGGLVPAGGSLRLSCAASGSIIITKAMGWYRQAPGKERELVAAISWTDDITYYADSVKGRFTISRDNAKNTVYLQMNSLKPEDTAVYYCAAEETSYAYDYWGQGTQVTVSS,low polyreactivity
20,QVQLVESAGGLVQAAASLRLSCADSGITFVVYTMGWYRQAPGKERELVASISISGDSTNYADSVKGRFTISRDNAKNTVYLQMNSLKPEDTAVYYCNAAFYHFQFPWIAYDYWGQGTQVTVSS,low polyreactivity
21,QVQLVESAGGLVQAGASLRLSCAASGYIFFGNAMGWYRQAPGKERELVAAIRWRGTSTYYADSVKGRFTISRDNAKNTVYLQMNSLKPEDSAVYYCAADVVRSNFYGTFLYDYDYWGQGTQVTVSS,low polyreactivity

row,Sequence,polyreactivity (PSR sort gate)
1,QVQLVESAGGLVQAGGILRLSCAASGITIYRYAMGWYRQAPGKERELVADISSGGGTTYYADSVKGRFTISRYNAKNTVYLQMNSQKPEDTAVYYCAADYGFRYPLYDYWGQGTQVTVSS,low polyreactivity
2,QVQLVESAGGLVQAGGILRLSCAASGRTFEGNPMGWYRQAPGKERELVAAITSGGRTNYADSVKGRLTISRDNAKNTVYLQMNSLKPEDTAVYYCAATSTYRSYREYDYWGQGTQVTVSS,low polyreactivity
3,QVQLVESAGGLVQAGGRLRVSCAASGFTFTLYAMGWYRQEPGKERELVAAINRSGGRTYYADSVKGRFTISRDNAKNTVYLQKNSLKPEDTAVYYCNKYPWPNYYDGEYDYWGQGTQVTVSS,high polyreactivity
4,QVQLVESAGGLVQAGGSLRIICAASGRIFSVNSMGGYRQAPGKERELDATIRTDGTTNYADSVKGRFTISRDNAKNTVYLQMNSLQPGDPAVYYCNARIPYSWRYGYWGQGTQVTVSS,high polyreactivity
5,QVQLVESAGGLVQAGGSLRISCAASGRTFFKYAMGWYSQAPGKERELVAAITGRGGSTYADSVKGRFTISRDNAKNTVYLQINSLKPEDTSVFYCAKVYQRGAQYYYYKYDYWGQGTQVTVSS,high polyreactivity
6,QVQLVESAGGLVQAGGSLRLICAASGGTFVGYAMGWYRQAPGKERELVAAISRRGGSTYYADSVKGRFTISRDNAKNTVYLQMNSLKPEDTAVYYCAKSEHRSVPQYDYWGQGTQVTVSS,high polyreactivity
7,QVQLVESAGGLVQAGGSLRLSCAASASIFYVYSMGWSRQAPGKEREFVAAISWRGGSTYYADSVKGRFTISRDNAKNTVYLQMISLKPEDTAVFYCNGRRLGYRSGHPGYYWGQGTQVTVSS,high polyreactivity
8,QVQLVESAGGLVQAGGSLRLSCAASGFTFGENALGWYRQAPGKERELVAAIRYSGGSTYYADSVKGRFTLSRDNAKNTVYLQLNSLKAEDTAVYYCNADTYALGAAVIPGDEYWGQGTQVTVSS,low polyreactivity
9,QVQLVESAGGLVQAGGSLRLSCAASGFTFTKYAMGWYRQAPRKESELVAAISSSGYSTYYADSVKGRFTISRDNAKNTVYLQMNSLKPEDSAVYYCAARGYYSSGVDYWGQGTQVTVSS,high polyreactivity
10,QVQLVESAGGLVQAGGSLRLSCAASGFTFTYYVMGWYRQAPGKERELVAAISSGGSTYYADSVKGRFTISRDNAKNTVYLQMNSLKPEDTAVYYCAKGSGYYYRYGYWGQGTQVTVSS,high polyreactivity
11,QVQLVESAGGLVQAGGSLRLSCAASGGIFGINAMGWYRQAPGKERELVAAINLSGGRTYYADSVKGRFTISRDNAKNTVYLQMNSLKPEDTAVYYCAAFYGYSLYGHYEYWGQGTQVTVSS,high polyreactivity
12,QVQLVESAGGLVQAGGSLRLSCAASGIIFDTNAMGCYRQAPGKERELVASISKRGGSTYYADSVKGRFTISRDNAKNTVYLQMNSLKPEDTAVYYCNALRRRQYHDDYWGQGTQVTVSS,high polyreactivity
13,QVQLVESAGGLVQAGGSLRLSCAASGIIFIYYTMGWYRQAPGKERELVAVITTSGDGTYYADSVKGRFTISRDNAKNTVYFQMNSLKPEDTAVYYCAASYSTWVSSRNDYWGQGTQVTVSS,low polyreactivity
14,QVQLVESAGGLVQAGGSLRLSCAASGIIFRYYAMGWYRQAPGKERELVARITSRGGTYYADSVKGRFTISRDNAKNNVYLQMNSLKPEDTAVYYCAASYLLTHGYAYNYWGQGTQVTVSS,high polyreactivity
15,QVQLVESAGGLVQAGGSLRLSCAASGIISRWYAMGWYRQAPGKERELVAAITRGGNTYYADSVKGRFTISRDNAKNTVYLQMNSLKPEDTAVYYCAARTPSRYLYFEYDYWGQGTQVTVSS,low polyreactivity
16,QVQLVESAGGLVQAGGSLRLSCAASGITLSYNAMGWYRQAPGKERELVAAISARGGSTYYADSVKGRFTISRDNAKNTVYLQMNSLKPEVTAVYYCAAPRGWRQNKYDYWGQGTEVTVSS,high polyreactivity
17,QVQLVESAGGLVQAGGSLRLSCAASGLILHINTMGWYRQAPGKERELVAAISWSGDSTYYADSVKGRFTISRDNAKNTVYLQMNSLKPDDTAVYYCTTDYGHTYLYGYDYWGQGTQVTVSS,high polyreactivity
18,QVQLVESAGGLVQAGGSLRLSCAASGLTFVPNAMGWYRQAPGKEREFVAAISNNGGRTYYADSVKGRFTISRDNAKNTVYLEMNSLKPEDTAVYYCAKFLSPGERHSYDYWGQGTQVTVSS,high polyreactivity
19,QVQLVESAGGLVQAGGSLRLSCAASGNTFYPYAMGWYRQAPGKERELVAAITSVGRTYYADSVKGRFTITRDNAKNTVYLQMNSLKPEDTAVYYCAAVVYYRGYTYNYWGQGTQVTVSS,high polyreactivity
20,QVQLVESAGGLVQAGGSLRLSCAASGRIFRYNAMGWYRPAPGKERELVAAISSIGGRTYYADTVKGRFTISRDNAKNTVYLQMYSLKPEDTAVYSCNARGYLSRSHMHEYDYWGQGTQVTVSS,high polyreactivity
